# Tests used:
# RFP-Bax = molecular target: T1, RFP-Bax (Homo sapiens, UniProt Q07812); test: Cellular co-localization in Cos-7 cells (confocal microscope); format: cell-based
# T1 construct: expressed in transfected cells; host or cells: Cos-7
# Excerpt: GFP-HN and a Red Fluorecence Protein (RFP) vector, RFP-Bax, were transfected into Cos-7 cells. The intracellular localization of the expressed polypeptides was examined using a confocal microscope. […] GFP-HN localized to punctate intracellular membranes and when GFP-HN and RFP-Bax were co-expressed, the two polypeptides co-localized to intracellular membranes (data not shown).
# t-Bid = molecular target: T2, t-Bid (Homo sapiens, UniProt P55957); test: Co-immunoprecipitation of Humanin with t-Bid in 293T cells; format: binding; parameters: expressed in transfected cells
# T2 sequence (P55957 61-195 limits assumed): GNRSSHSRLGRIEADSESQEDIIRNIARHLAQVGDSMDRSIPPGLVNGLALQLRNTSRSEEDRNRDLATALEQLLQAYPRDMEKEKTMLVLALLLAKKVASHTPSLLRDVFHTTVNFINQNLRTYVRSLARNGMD
# Method: The lysates were immunoprecipitated with (A) anti-GFP antibody or (B) anti-tBid antibody and blotted with (A) anti-HA antibody or (B) anti-GFP antibody. The data shown were obtained using the cytosolic form of Humanin; however, both cytosolic and mitochondrial forms of Humanin were tested and the results were the same.
# The following experiments confirm an interaction between Humanin and Bax. Similar experiments were performed to confirm an interaction between Humanin and Bid.
# GFP-Bax = molecular target: T3, GFP-Bax (Homo sapiens, UniProt Q07812); test: STS-induced GFP-Bax translocation to mitochondria in Cos7 cells (confocal microscopy); format: cell-based; details: peptide transduced with Chariot, 1 μM STS
# T3 construct: expressed in transfected cells; host or cells: Cos-7
# T3 sequence (Q07812 whole entry): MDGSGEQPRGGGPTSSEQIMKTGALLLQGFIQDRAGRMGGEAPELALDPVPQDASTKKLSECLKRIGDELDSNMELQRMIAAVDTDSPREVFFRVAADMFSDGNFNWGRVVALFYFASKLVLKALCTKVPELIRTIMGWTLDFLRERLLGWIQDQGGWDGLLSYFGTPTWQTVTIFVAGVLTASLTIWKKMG
# Method: (A-B) Humanin peptide prevents STS-induced Bax translocation in vivo. Cos-7 cells were first transfected with GFP-Bax plasmids. After 24 hrs, untagged wild-type or C8P mutant Humanin peptides were introduced into cells using ChariotTM reagent, and 2 h later cells were treated with 1 μM STS. After 4 h, the percentage of cells with translocated Bax was determined (mean±SD; n=3) by confocal microscopy (A) and representative photomicrographs (B). (C) Wild-type or C8P mutant Humanin peptides were introduced into Cos7 cells using ChariotTM reagent. Cytosolic (C) and mitochondria-containing (M) fractions were isolated by differential centrifugation 23 and analyzed by immunoblotting using anti-Bax (top), Hsp60 (middle) (mitochondrial marker), or Tubulin (bottom) (cytosol marker) antibodies. (D) HN or mutant control double-strand siRNAs were transfected into SF268 cells. After 48 h, cells were cultured without (Control) or with 0.1 uM STS. After 24 hr, cells were fractionated and analyzed by immunoblotting as above. (E) Isolated mitochondria were mixed with 400 ng Bax protein, with or without preincubating Bax with 100 uM Humanin or Humanin(C8P) peptides for 10 min. After 3 h at 30° C., mitochondria were centrifuged and the resulting pellets (P) and supernatants (S) were analyzed by immunoblotting using anti-Cytochrome c (top), Hsp60 (middle), and Bax (bottom) antibodies. […]
# endogenous Bax = molecular target: T4, endogenous Bax (Mus musculus, UniProt Q07813); test: Co-immunoprecipitation of endogenous Humanin and Bax from mouse testis lysates; format: binding; details: endogenous peptide and protein
# T4 construct: from tissue; host or cells: testes of three-week-old mice
# T4 sequence (Q07813 whole entry): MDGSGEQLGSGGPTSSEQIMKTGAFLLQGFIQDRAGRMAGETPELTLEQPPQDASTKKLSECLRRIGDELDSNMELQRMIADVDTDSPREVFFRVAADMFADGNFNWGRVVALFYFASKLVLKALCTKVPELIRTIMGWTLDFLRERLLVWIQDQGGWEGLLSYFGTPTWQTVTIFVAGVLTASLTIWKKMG
# Excerpt: (A) HEK293T cells were transfected with pcDNA3-myc plasmids encoding Bax or other Bcl-2 family proteins with GFP, GFP-HN, or GFP-HN(C8P). Cell lysates were immunoprecipitated with polyclonal anti-GFP antibody. The immunoprecipitates or the lysates were blotted with anti-myc or anti-GFP antibodies, respectively. The slower migrating form of GFP seen in lane 1 (asterisk)represents an alternative form of GFP produced from the wild-type (control) p-EGFP-Cl plasmid (http://clonotech.com). (B) Testes of three-week-old mice were homogenized in lysis buffer (0.1% Triton X-100, 50 mM Tris-HCl, pH7.5, 1 mM EDTA, plus protease inhibitor cocktail). The lysates were immunoprecipitated with control rabbit serum or polyclonal anti-mouse Bax antibody. The immunoprecipitates or the lysates were subjected to electrophoresis in Tris/Tricine gels (16% T, 3% C), electroblotted to PVDF membrane, and immunoblotted with polyclonal anti-HN antibody or monoclonal anti-Bax antibody 6A7 (Trevigen). […]
# A rabbit polyclonal antibody raised against Humanin peptide (P04, gift of Dr. Ikuo Nishimoto) was used to examine whether endogenous Humanin peptide interacts with endogenous Bax polypeptide. […] In addition, endogenous Humanin was determined to be a cytosolic protein, based on subcellular fractionation experiments.
# T1 sequence (Q07812 whole entry): as the sequence (Q07812 whole entry) above
substance,measurement,setting,value
GFP-HN: Wild-type full-length Humanin fused to Green Fluorescent Protein,co-localization with RFP-Bax,RFP-Bax,co-localized
"Humanin: 24 amino acid polypeptide, cytosolic form of human Humanin (SEQ ID NO:2); used as synthetic peptide or expressed fusion",interaction with t-Bid by co-immunoprecipitation,t-Bid,found to interact
same,suppression of GFP-Bax translocation,GFP-Bax,about half
same,co-immunoprecipitation with Bax from mouse testis lysates,endogenous Bax,co-immunoprecipitated

# Source: patent US7422862B2, “Methods for identifying modulators of apoptosis” (The Burnham Institute, priority 2001, dated 2008)
